Article PMC5898484, “Two Differential Binding Mechanisms of FG-Nucleoporins and Nuclear Transport Receptors” (Cell Reports, 2018)
Blank lines part the entries; values can stand above or below the molecule they belong to.

Key:
[1] = molecular target: FG-Nup214^Glc labelled for stopped-flow kinetics; experiment: stopped-flow fluorescence anisotropy; association under pseudo-first order conditions (>10-fold excess of the NTR); kobs from single exponential fits, kon from the slope of kobs versus NTR concentration; excitation 532 nm
[2] = molecular target: FG-Nup214 labelled for stopped-flow anisotropy; experiment: as above
[3] = molecular target: FG-Nup214^117 (117-aa fragment of FG-Nup214), wild type, labelled for FRET; experiment: single-molecule FRET (smFRET) titration; fractions of bound (low E_FRET) and unbound (high E_FRET) FG-Nup214^117 as a function of CRM1 concentration, with 1 μM RanGTP
[4] = molecular target: FG-Nup214^117 proline double mutant A1927P/A2017P; experiment: as above
[5] = molecular target: FG-Nup214^117 proline triple mutant A1927P/A2017P/A2019P; experiment: as above
[6] = molecular target: FG-Nup214 labelled for stopped-flow anisotropy; experiment: stopped-flow fluorescence, dissociation; preformed FG-Nup⋅NTR complex rapidly mixed with 100× (2 μM) excess of unlabeled FG-Nup
[7] = molecular target: FG-Nup153^Glc labelled for stopped-flow kinetics; experiment: stopped-flow fluorescence anisotropy; association under pseudo-first order conditions (>10-fold excess of the NTR); kobs from single exponential fits, kon from the slope of kobs versus NTR concentration; excitation 532 nm
[8] = molecular target: FG-Nup153 labelled for stopped-flow kinetics; experiment: stopped-flow fluorescence, dissociation; preformed FG-Nup⋅NTR complex rapidly mixed with 100× (2 μM) excess of unlabeled FG-Nup
[9] = molecular target: T1, CRM1 (export receptor, exportin) (UniProt O14980 1-1071); experiment: stopped-flow fluorescence (donor signal of a FRET-labelled sample); association; donor signal change of FRET-labelled FG-Nup214 instead of anisotropy; conditions: both partners purified
T1 construct: exportin CRM1; Construct details in the Supplemental Experimental Procedures; also called exportin CRM1
T1 sequence (O14980 whole entry): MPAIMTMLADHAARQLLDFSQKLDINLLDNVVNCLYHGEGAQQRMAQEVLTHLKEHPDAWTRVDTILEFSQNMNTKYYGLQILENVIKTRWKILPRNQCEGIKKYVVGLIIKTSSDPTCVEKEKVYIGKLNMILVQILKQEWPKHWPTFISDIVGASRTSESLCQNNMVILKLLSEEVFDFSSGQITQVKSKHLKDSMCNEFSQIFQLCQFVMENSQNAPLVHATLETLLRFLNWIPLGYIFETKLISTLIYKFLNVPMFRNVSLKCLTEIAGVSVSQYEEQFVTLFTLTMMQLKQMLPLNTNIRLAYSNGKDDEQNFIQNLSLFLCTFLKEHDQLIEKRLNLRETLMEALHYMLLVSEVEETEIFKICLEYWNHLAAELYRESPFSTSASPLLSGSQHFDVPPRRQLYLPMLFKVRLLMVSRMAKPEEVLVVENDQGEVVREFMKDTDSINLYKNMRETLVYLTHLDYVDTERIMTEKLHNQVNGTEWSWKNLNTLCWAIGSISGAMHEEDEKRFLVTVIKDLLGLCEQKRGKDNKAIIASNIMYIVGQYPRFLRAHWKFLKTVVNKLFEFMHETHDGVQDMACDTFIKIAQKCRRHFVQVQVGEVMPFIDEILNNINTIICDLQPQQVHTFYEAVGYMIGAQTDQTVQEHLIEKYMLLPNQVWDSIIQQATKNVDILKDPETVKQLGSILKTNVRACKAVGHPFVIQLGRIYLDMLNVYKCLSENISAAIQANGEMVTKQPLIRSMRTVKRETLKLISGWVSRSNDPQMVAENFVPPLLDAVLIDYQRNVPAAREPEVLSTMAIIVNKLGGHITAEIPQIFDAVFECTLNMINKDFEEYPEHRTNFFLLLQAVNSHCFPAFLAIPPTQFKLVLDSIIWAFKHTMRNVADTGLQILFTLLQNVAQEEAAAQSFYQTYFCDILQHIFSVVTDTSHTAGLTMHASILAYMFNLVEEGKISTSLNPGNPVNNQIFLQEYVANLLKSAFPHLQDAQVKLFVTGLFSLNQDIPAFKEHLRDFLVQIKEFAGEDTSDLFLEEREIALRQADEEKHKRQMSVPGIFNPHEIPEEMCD

Molecule: CRM1 (export receptor, exportin) (from UniProt O14980 1-1071)
kon [1]: 3.8e+07 M⁻¹ s⁻¹
kon [2]: 4e+07 M⁻¹ s⁻¹

Molecule: CRM1⋅RanGTP complex (from UniProt O14980 1-1071; P62826 1-216)
kon [1]: 1.3e+07 M⁻¹ s⁻¹
kon [2]: 2.1e+07 M⁻¹ s⁻¹
Kd [3]: 0.035 µM
Kd [4]: 0.053 µM
Kd [5]: 0.222 µM
complex half-life [6]: 5 s
koff [6]: 0.14 s⁻¹

The next lines start with the values.

kon [7]: 8.5e+08 M⁻¹ s⁻¹
complex half-life [8]: 0.08 s
koff [8]: 8.7 s⁻¹
Molecule: Importinβ (import receptor) (from UniProt Q14974 1-876)

kon [9]: 3e+07 M⁻¹ s⁻¹
B1: FG-Nup214 (FG domain of Nup214), double-labelled for FRET (domain or fragment)
chain: ATTTSVAPPAATSTSSTAVFGSLPVTSAGSSGVISFGGTSLSAGKTSFSFGSQQTNSTVPPSAPPPTTAATPLPTSFPTLSFGSLLSSATTPSLPMSAGRSTEEATSSALPEKPGDSEVSASAASLLEEQQSAQLPQAPPQTSDSVKKEPVLAQPAVSNSGTAASSTSLVALSAEATPATTGVPDARTEAVPPASSFSVPGQTAVTAAAISSAGPVAVETSSTPIASSTTSIVAPGPSAEAAAFGTVTSGSSVFAQPPAASSSSAFNQLTNNTATAPSATPVFGQVAASTAPSLFGQQTGSTASTAAATPQVSSSGFSSPAFGTTAPGVFGQTTFGQASVFGQSASSAASVFSFSQPGFSSVPAFGQPASSTPTSTSGSVFGAASSTSSSSSFSFGQSSPNTGGGLFGQSNAPAFGQSPGFGQGGSVFGGTSAATTTAATSGFSFCQASGFGSSNTGSVFGQAASTGGIVFGQQSSSSSGSVFGSGNTGRGGGFFSGLGGKPSQDAANKNPFSCASGGFGSTATSNTSNLFGNSGAKTFGGFASSSFGEQKPTGTFSSGGGSVASQGFGFSSPNKTGGFGAAPVFGSPPTFGGSPGFGGVPAFGSAPAFTSPLGSTGGKVFGEGTAAASAGGFGFGSSSNTTSFGTLASQNAPTFGSLSQQTSGFGTQSSGFSGFGSGTGGFSFGSNNSSVQGFGGWRS
modifications: Alexa594-maleimide (acceptor) on the Cys introduced at 1,905; p-acetylphenylalanine (AcF) at 2,043 labelled with Alexa488-hydroxylamine (donor)
